B1: GST-Mob1A (natural protein, human (cDNA from HeLa), UniProt Q9H8S9 1-216, looked up)
chain: MSFLFSSRSSKTFKPKKNIPEGSHQYELLKHAEATLGSGNLRQAVMLPEGEDLNEWIAVNTVDFFNQINMLYGTITEFCTEASCPVMSAGPRYEYHWADGTNIKKPIKCSAPKYIDYLMTWVQDQLDDETLFPSKIGVPFPKNFMSVAKTILKRLFRVYAHIYHQHFDSVMQLQEEAHLNTSFKHFIFFVQEFNLIDRRELAPLQELIEKLGSKDR
notes: Mob1A; cDNA isolated by PCR from a HeLa cDNA library, cloned into pGEX-6P-1; Vector pGEX-6P-1, BamHI and SalI; also called recombinant Mob1A; source: E. coli, purified by glutathione-agarose beads

What was measured:
MBP-NDR1 wild type = target: T1, MBP-NDR1 wild type (human, UniProt Q15208 1-465); assay: pull-down; GST or GST-fusion protein on agarose beads incubated with purified dissolved MBP-tagged proteins in PBS, 0.1% Triton X-100, 0.5 mM DTT, 4 °C, 3-8 hours; SDS-PAGE, CBB stain; bands quantified by ImageJ for the Mob1A pull-down; conditions: both partners purified
T1 construct: NDR1 kinase, human, full length; cDNA isolated by PCR from a HeLa cDNA library; Vector pMAL-C2x; also called MBP-tagged NDR1; NDR1^WT; source: E. coli, purified by amylose beads, eluted by 10 mM maltose (told for MBP and the MBP-NDR1 mutants)

GST-Mob1A = target: B1; assay: as above; conditions: both partners purified

T1 sequence (Q15208 whole entry, the tested form may be a part): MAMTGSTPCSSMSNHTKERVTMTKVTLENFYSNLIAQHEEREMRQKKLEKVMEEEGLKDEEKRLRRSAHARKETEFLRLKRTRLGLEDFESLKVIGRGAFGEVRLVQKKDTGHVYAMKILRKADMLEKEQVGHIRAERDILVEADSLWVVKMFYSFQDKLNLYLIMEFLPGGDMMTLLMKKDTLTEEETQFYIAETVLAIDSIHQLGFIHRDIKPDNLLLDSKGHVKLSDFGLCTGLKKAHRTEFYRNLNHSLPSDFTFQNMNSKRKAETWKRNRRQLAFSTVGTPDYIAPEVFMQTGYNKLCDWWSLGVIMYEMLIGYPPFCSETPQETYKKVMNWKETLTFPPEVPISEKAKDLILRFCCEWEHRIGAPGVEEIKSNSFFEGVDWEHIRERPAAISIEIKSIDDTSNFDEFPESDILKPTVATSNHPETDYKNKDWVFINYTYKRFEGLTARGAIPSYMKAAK

B1
binding result (MBP-NDR1 wild type): binds

B2: MBP-NDR1^3A (enzyme)
chain: not shown
notes: NDR1 kinase, human, full length, Thr7, Thr183 and Thr407 mutated to alanines; Mutants were made on the siRNA-resistant (silent changes) NDR1 plasmid; source: E. coli, purified dissolved MBP-tagged protein
percent retained relative to NDR1^WT (GST-Mob1A): > 90%

B3: MBP-NDR1^3E (enzyme)
chain: not shown
notes: NDR1 kinase, human, full length, phospho-mimicking mutant of the PLK1 sites Thr7, Thr183 and Thr407 (3E); glutamate is read from that name; Mutants were made on the siRNA-resistant NDR1 plasmid; also called phosphomimetic mutant NDR1^3E; source: E. coli, purified dissolved MBP-tagged protein
percent bound relative to NDR1^WT (GST-Mob1A): < 30%

From PMC4460818, “Regulation of NDR1 activity by PLK1 ensures proper spindle orientation in mitosis” (Scientific Reports, 2015)
